Six molecules from patent EP4585616A1, “ANTIBODY CAPABLE OF SPECIFICALLY BINDING TO ROR1, […] THEREOF, AND PREPARATION METHOD THEREFOR AND USE THEREOF” (Hefei Institutes of Physical Science, Chinese Academy of …, priority 2022, dated 2024) can be followed below.

Assay [1] addresses T1, human ROR1 on the surface of tumor cells (human, UniProt Q01973 30-937).
T1 construct: whole, on cells; also called ROR1 on the cell surface; tumor cell ROR1
Nature of the assay: FACS, NCI-H226 cells. In general terms: A flow cytometer gives signals particle by particle.

Assay [2] deals with T1, human ROR1 on the surface of tumor cells. Nature of the assay: FACS, MDA-MB-231 cells.
For assay [3], the target named is T2, ROR1 extracellular segment with Kringle domain removed on CHO cells (human, UniProt Q01973 30-472, limits assumed).
T2 construct: Transfected into CHO cells; also called CHO-ROR1 (with Kringle domain removed)
Nature of the assay: FACS, CHO-ROR1 (with Kringle domain removed) cells.

Assay [4] concerns the target T3, ROR1 extracellular segment with Frizzled domain removed on CHO cells (human, UniProt Q01973 30-472, limits assumed).
T3 construct: Transfected into CHO cells; also called CHO-ROR1 (with Frizzled domain removed)
Nature of the assay: FACS, CHO-ROR1 (with Frizzled domain removed) cells.

For assay [5], the target named is T4, ROR1 extracellular segment sequence (including transmembrane) on CHO cells (human, UniProt Q01973 30-472).
T4 construct: Cloned into pCDNA3.1 and transfected into CHO cells; also called CHO-ROR1 (extracellular segment); CHO-ROR1
Nature of the assay: FACS, CHO-ROR1 (extracellular segment) cells.

In assay [6] the target is T5, Extracellular domain of human ROR1 protein (ROR1-ECD) (human, UniProt Q01973 30-403).
T5 construct: Expressed in HEK293T cells; also called human ROR1-ECD; purified human ROR1 protein extracellular segment
Nature of the assay: ELISA, plate-coated ROR1-ECD. For orientation: In an ELISA, binding on a coated surface is turned into a signal by an enzyme label.

The target of assay [7] is T4, ROR1 extracellular segment sequence …. Nature of the assay: FACS, ROR1 transferred onto CHO cell surface (summing up of Example 9).
The target of assay [8] is T6, ROR1 extracellular segment with Ig-like domain removed on CHO cells (human, UniProt Q01973 30-472, limits assumed).
T6 construct: Transfected into CHO cells; also called CHO-ROR1 (with Ig-like domain removed)
Nature of the assay: FACS, CHO-ROR1 (with Ig-like domain removed) cells.

A further assay relates to HT-29 tumors. In words: In vivo antitumor activity, subcutaneous tumor model. Also on record: species or system immunodeficient mice (NCG or Balb/c-nude). As to conditions: 5 mg/kg and 2.5 mg/kg once a week, tail vein, 3 weeks, result in words. On the procedure:
(§1) 200 µL of cell matrix gel suspension containing 5×10^6 MDA-MB-231 and HT-29 were inoculated subcutaneously on the back of immunodeficient mice (NCG or Balb/c-nude). When the tumor volume grew to 100 to 200 mm^3, the mice were randomly divided into groups (n=10) according to the tumor volume and nude mouse weight. The mice were dosed at doses of 5 mg/kg and 2.5 mg/kg once a week through the tail vein for a total of 3 weeks, as well as a group with PBS set as a negative control. The tumor volume and nude mouse weight were measured and recorded 2 to 3 times a week to plot the tumor growth curve. The formula for calculating tumor volume (V) is: V=1/2×a×b^2, where a and b represent the length and width of the tumor, respectively.

A further assay concerns MDA-MB-231 tumors. The description is as above. Also on record: species or system immunodeficient mice (NCG or Balb/c-nude). As to conditions: 5 mg/kg once a week, tail vein, 3 weeks, result in words. The method, then: as §1
as §1, with “5 × 10^6 MDA-MB-231, 1 × 10^7 HCC1187, 1 × 10^7 PA-1, or 5 × 10^6 NCI-N87 was” for “5×10^6 MDA-MB-231 and HT-29 were”, “300 mm3,” for “200 mm^3,”, “(n=8 to 10)” for “(n=10)”, “The formula for calculating tumor volume (V) is: V=1/2×a×b^2, where a and b represent the length and width of the tumor, respectively.” left out

Assay [9] has as its target T1, human ROR1 on the surface of tumor cells. In words: FACS, NCI-H226 cells. This is another data set of the same source.
The target of assay [10] is T5, Extracellular domain of human ROR1 …. Nature of the assay: ELISA, plate-coated ROR1-ECD. The source holds these as a separate data set.
The target of assay [11] is T1, human ROR1 on the surface of tumor cells. In words: FACS, MDA-MB-231 cells. This is another data set of the same source.
In assay [12] the target is T4, ROR1 extracellular segment sequence …. In words: FACS, CHO-ROR1 (extracellular segment) cells. This is another data set of the same source.

Changes are numbered by the printed parent chain. Where two headings read alike, the source gives them in different places.

T3 sequence (Q01973 other isoform, or with tags, fused parts or gaps limits assumed): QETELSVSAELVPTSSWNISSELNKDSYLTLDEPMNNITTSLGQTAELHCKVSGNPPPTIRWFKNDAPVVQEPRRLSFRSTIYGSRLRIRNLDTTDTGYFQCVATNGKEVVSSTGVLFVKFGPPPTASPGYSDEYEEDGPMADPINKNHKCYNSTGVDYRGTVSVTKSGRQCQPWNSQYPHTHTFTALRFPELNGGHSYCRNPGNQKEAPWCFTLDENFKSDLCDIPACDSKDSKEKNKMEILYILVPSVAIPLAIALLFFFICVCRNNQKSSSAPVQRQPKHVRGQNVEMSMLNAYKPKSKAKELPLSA
T1 sequence (Q01973 30-937): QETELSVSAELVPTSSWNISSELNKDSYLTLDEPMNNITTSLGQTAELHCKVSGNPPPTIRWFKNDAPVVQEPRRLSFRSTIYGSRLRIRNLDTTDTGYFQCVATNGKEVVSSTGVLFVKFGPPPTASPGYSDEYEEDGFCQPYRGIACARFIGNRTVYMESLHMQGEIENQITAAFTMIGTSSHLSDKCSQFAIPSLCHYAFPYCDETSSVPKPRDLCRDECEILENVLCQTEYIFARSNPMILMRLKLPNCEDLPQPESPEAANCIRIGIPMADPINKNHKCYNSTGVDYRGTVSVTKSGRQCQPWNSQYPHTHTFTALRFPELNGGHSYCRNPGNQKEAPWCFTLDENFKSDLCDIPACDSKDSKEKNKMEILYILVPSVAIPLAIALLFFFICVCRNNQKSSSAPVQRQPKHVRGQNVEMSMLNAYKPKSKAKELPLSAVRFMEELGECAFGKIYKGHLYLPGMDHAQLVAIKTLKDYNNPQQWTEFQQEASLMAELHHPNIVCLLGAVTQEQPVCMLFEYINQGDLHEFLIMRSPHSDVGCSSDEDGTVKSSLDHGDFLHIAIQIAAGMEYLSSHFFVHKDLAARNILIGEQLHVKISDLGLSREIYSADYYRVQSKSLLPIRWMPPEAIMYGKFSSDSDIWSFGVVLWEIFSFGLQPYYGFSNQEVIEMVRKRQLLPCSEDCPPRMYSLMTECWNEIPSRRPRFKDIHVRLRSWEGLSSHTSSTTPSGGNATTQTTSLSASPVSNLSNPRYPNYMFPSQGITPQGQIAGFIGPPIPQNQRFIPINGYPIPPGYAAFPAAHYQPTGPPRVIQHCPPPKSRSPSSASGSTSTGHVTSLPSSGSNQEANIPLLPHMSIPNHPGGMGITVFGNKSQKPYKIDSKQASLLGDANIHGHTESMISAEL
T4 sequence (Q01973 30-472 limits assumed): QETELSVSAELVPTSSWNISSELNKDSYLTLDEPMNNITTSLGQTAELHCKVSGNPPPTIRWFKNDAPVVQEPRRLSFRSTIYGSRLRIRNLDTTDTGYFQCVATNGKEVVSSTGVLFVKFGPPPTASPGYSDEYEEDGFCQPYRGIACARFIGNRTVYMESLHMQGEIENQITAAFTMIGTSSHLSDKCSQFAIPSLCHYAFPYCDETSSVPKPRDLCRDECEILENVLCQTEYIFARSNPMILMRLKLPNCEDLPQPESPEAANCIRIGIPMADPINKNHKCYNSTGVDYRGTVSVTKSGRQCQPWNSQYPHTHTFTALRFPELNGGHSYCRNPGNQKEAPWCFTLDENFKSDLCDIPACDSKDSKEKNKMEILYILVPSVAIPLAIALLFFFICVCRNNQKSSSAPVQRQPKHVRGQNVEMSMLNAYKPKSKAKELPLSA
T5 sequence (Q01973 other isoform, or with tags, fused parts or gaps): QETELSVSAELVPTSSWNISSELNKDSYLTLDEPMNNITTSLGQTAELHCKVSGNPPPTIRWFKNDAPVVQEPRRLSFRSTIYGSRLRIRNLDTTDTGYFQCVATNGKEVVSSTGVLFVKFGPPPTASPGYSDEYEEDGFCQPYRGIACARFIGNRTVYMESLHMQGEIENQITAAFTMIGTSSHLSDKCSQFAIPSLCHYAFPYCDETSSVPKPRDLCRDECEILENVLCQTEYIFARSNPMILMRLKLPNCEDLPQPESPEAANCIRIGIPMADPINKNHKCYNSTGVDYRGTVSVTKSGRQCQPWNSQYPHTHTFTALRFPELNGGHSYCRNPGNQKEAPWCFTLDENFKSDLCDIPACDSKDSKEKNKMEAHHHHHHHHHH
T6 sequence (Q01973 other isoform, or with tags, fused parts or gaps limits assumed): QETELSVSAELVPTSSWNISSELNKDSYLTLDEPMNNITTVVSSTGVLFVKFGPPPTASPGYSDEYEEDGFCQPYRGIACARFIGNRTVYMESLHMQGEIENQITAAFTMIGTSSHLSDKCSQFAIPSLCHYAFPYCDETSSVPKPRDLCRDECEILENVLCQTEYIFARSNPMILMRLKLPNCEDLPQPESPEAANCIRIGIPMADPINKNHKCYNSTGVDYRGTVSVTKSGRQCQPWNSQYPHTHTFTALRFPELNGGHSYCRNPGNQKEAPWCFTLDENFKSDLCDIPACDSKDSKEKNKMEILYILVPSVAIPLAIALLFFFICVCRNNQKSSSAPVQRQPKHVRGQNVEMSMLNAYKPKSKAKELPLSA
T2 sequence (Q01973 other isoform, or with tags, fused parts or gaps limits assumed): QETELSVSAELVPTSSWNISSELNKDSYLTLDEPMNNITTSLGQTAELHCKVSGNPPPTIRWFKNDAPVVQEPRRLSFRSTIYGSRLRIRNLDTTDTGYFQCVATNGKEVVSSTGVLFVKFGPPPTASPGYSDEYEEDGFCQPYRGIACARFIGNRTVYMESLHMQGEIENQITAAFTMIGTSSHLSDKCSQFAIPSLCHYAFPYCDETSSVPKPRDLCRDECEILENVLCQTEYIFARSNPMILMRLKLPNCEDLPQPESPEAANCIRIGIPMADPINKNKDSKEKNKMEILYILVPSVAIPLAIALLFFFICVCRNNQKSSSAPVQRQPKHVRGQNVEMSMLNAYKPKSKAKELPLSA

B1: UC-961 (antibody, V domains shown)
VH: QVQLQESGPGLVKPSQTLSLTCTVSGYAFTAYNIHWVRQAPGQGLEWMGSFDPYDGGSSYNQKFKDRLTISKDTSKNQVVLTMTNMDPVDTATYYCARGWYYFDYWGHGTLVTVSS
VL: DIVMTQTPLSLPVTPGEPASISCRASKSISKYLAWYQQKPGQAPRLLIYSGSTLQSGIPPRFSGSGYGTDFTLTINNIESEDAAYYFCQQHDESPYTFGEGTKVEIK
notes: Control antibody of US20150232569A1, made with human IgG1 heavy chain constant region and Kappa chain constant region
Broadly, the EC50 is the midpoint of the concentration-response curve. Lower therefore signals greater potency. Regarding B1, the EC50 in assay [1] turned out to be 130 pM; in [2] it was 210 pM; in [3], 790 pM; in [4], 1110 pM; in [5] it was 740 pM; in assay [6], 13 pM.

B2: mAb005c (antibody, V domains shown)
VH: EVQLVESGGGLVKPGGSLKLSCAASGFTFNSYAMSWVRQTPEKRLEWVATISDGGSYTYYPDNEKGRFTISRDNAKNNLYLQMSHLKSEDTAIYYCVRGGYYYNLYAMDYWGQGTSVTVSS
VL: DIVLTQSPASLAVSLGQRAIISCKASQSVSFPGTSLMHWYQQKPGQQPKLLIYRASNLEAGVPTRFSGSGSRTDFTLNIHPVEEDDTATYYCQQSREYPWTFGGGTQLEIK
notes: Human-mouse chimeric
Consider B2, for which the EC50 in [1] was 180 pM; in assay [2], 240 pM; in [3] it was 910 pM; in assay [4], 1020 pM; in assay [7], < 2000 pM; in assay [5], 570 pM. Also, the midpoint of the response in assay [6], the EC50, lay at 9 pM.

B3: mAb001c (antibody, V domains shown)
VH: EVRLQQSGPVLVKPGASVKMSCKASGYTFTDYNLHWVKQSHRQSLEWIGYINPNHDGTSYNQKFQGKATLTVDRSSSTAYMEFRSLTSEDSAVYYCARRVRTGTGLDDWGQGTTLTVSS
VL: DVLMTQSPLSLPVSLGDQASISCRSSHNIVHTNGNTYLEWYLQKPGQSPKLLIYKVSNRFSGVPDRFSGSGSGTYFTLTISRVEAEDLGVYYCFQGSRFPYTFGGGTKLEIK
notes: Human-mouse chimeric; also called human-mouse chimeric antibody mAb001c
For the molecule B3, the EC50 in [1] is 110 pM; in [8], 360 pM; in assay [2] it was 150 pM; in [3], 380 pM; in [4], 850 pM; in [7], < 2000 pM. The EC50 worked out at 320 pM in assay [5] and 12 pM in assay [6].

B4: mAb001c-vcMMAE: antibody conjugate of chimeric antibody mAb001c coupled with vcMMAE, average DAR about 3.81 (conjugate)
VH: B3 VH
VL: B3 VL
As to B4, the “inhibition of the growth of HT-29 tumors” value with HT-29 tumors is “significantly and dose-dependently inhibited”. Also, in the assay with MDA-MB-231 tumors, the “inhibition of the growth of MDA-MB-231 tumors” value is listed as “completely inhibit”.

B5: mAb008c (antibody, V domains shown)
VH: EVQLQQSGPELVKPGASVKMSCKASEYTFTDYNMHWVKQSHGKSLEWIGYINPNNGGTTYNQKFKGKATLTVNKSSSTAYMELRSLTSDDSAVYYCARRGYGSGYAMDYWGQGASVTVSS
VL: B3 VL with M4L, S7T, Q18R, R24T, H27Q, N28S, K44N, Y75D, T79K, R98L
notes: Human-mouse chimeric
As to B5, the EC50 in [8] is 370 pM; in assay [3], 1500 pM; in assay [4] it was 1670 pM; in assay [9], 360 pM; in assay [10] it was 20 pM; in assay [11], 780 pM. The EC50 is 700 pM in [12] and < 2000 pM in assay [7].

B6: mAb004c (antibody, V domains shown)
VH: EVQLVESGGGLVQPKGSLKLSCAASGFTFNTYAMHWVRQAPGKGLEWVARIRSKSSNFATYYADSVRDRFTISRDDSQSMLYLQMNNLKTEDTAMYYCVRGYGPSYFSLDYWGQGTSVTVSS
VL: DVVMTQTPLSLPVSLGDQASISCRSSQSLVHSNGNTYLHWYLQKPGQSPKLLIYKVSNRFSGVPDRFSGSGSGTDFTLKINRVEAEDLGVYFCSQSTHAIYTFGGGTKLEIK
notes: Human-mouse chimeric
For B6, the EC50 was 460 pM in assay [1]; 350 pM in assay [8]; 400 pM in assay [2]; 840 pM in assay [3]; 1370 pM in assay [4]; < 2000 pM in assay [7]. Moreover, the EC50 in assay [5] was 320 pM; in assay [6] it was 12 pM.
